{"source": "paper PMC4359947", "molecular_target": "MAGI-1 PDZ3 domain, Cy3-labelled, tag-free", "experiment": "FRET or BRET", "note": "Ends that are not written are not given here.", "data": [{"binder": "GAIPVMIPAQSKDGSIV (also: Cy5 label (approximately 1 dye/peptide), site not given here)", "note": "[CAR (CAR^Ex7) C-terminus, Cy5-labelled, tag-free]", "values": [{"measurement": "Kd", "result": 2, "unit": "nM"}]}]}
